What was measured:
MS2 coat protein [1] = assay: apparent KD of MS2 coat protein, switch ON state; designed switch direction (-1 OFF switch, 1 ON switch): -1; higher = weaker reporter binding; details: FMN input: 0 or 200 uM; Eterna round: R93 (includes R88 designs)
Summary of the method: (§1)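 Titration buffer: 100 mM Tris-HCl pH 7.5, 80 mM KCl, 4 mM MgCl2, without or with constant ligand. Designed RNA switches transcribed on-chip from Illumina sequencing clusters received SNAP-549-labelled MS2 coat protein in twofold steps from 0.7 or 1.5 nM to 3 µM. Apparent KD is the median per design of fits to normalised cluster binding curves.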

MS2 coat protein [2] = assay: apparent KD of MS2 coat protein, switch OFF state (with FMN for OFF switches, without FMN for ON switches); designed switch direction (-1 OFF switch, 1 ON switch): -1; higher = weaker reporter binding; details: FMN input: 0 or 200 uM; Eterna round: R93 (includes R88 designs)
Summary of the method: as §1

Row | Sequence | apparent KD of MS2 coat protein (MS2 coat protein [1]) [nM] | apparent KD of MS2 coat protein (MS2 coat protein [2]) [nM]
1 | AGGAAACAUGAGGAUCACCCAUGUAAGGAUAUGAACGAAAUAAAAUAAAAAUAAAAGUUCAGAAGGUACGAAAA [Mat - Exclusion 1 - Eli mod - D9] | 22.1 | 40.3
2 | AGGAAACAUGAGGAUCACCCAUGUCAGGAUAUUCAAAAGAAAAGAAAAGAAAGAAGAAGAAGAAGGGACAAGAA [Wazner] | 36.7 | 44.5
3 | AGGAAGUGAGGAUAUGCAGCAUAUAGUGGACGCUAUAGCAUGUAGAAGGCACAUGAGGAUCACCCAUGUUUAAA [EX4 Malc#38] | 30.8 | 34.9
4 | AGGAGACAUGAGGAUCACCCAUGUUAGGAUAUGAACGAAAAUAAAUAAAAAUAAAAGUUCAGAAGGGACGAAAA [66%, Wbt, 8] | 43.3 | 44.7
5 | AGGAUGUCAGGAUAUGCGUAAAGAAUAAAACAAAUAACAACGCAGAAGGGACAUGAGGAUCACCCAUGUUAAGA [May 45] | 42.3 | 86
6 | AGGAUGUCAGGAUAUGUGUAAAGAAUAAAACAAAUAACAACACAGAAGGGACAUGAGGAUCACCCAUGUUACCC [May 38] | 17.1 | 17.7
7 | AGGGAGUGAGGAUAUGCGAAAUAAAAAGAAGGAAAAAAAGAGCAGAAGGCACAUGAGGAUCACCCAUGUGAGAA [milkweed 11] | 22.6 | 15.7
8 | AGUAGGCGAGGAUAUACAUGAGGAUCACCCAUGUGAAAGAAAAAAGUGAGAAAGAAAAGUAGAAGGCGCUGACA [Ex 3 mod of Eli's mod of Lego's 73%] | 60.4 | 204
9 | AGUAGUACAGGAUAUACAUGAGGAUCACCCAUGUGAAAAUAAAGUGGCGUACCACAAAGUAGAAGGGUACUACA [Mat - Exclusion 3 - JL mod - D35] | 27.9 | 138
10 | AGUCAGAGAGGAUAUACAAGGGAAAAAAAAGUUAGAUCCCUACAUGAGGAUCACCCAUGUAGAAGGCUCUGACA [Ex2 Design 152: Sub-opt 16] | 108 | 49.2
11 | AGUGAGUCAGGAUAUGCGUGAAGAAUAAAAGAAAUAACAACGCAGAAGGGACAUGAGGAUCACCCAUGUACACA [May 56] | 23.5 | 20.7
12 | AGUUGGCGAGGAUAUACAUGAGGAUCACCCAUGUGAAAUCGAGAAAAAAUAGGGAAAAGUAGAAGGCGCAGACA [Ruby 63] | 20.6 | 24.1
13 | AGUUGGCGAGGAUAUACAUGAGGAUCACCCAUGUGAGAGUAAAAAGUGAGAAAGAAAAGUAGAAGGCGCUAACA [JL Lego Mod 19] | 48.8 | 352
14 | AGUUGGCGAGGAUAUACAUGAGGAUCACCCAUGUGAUAGAAAAAAGUGAGAAAGAAAAGUAGAAGGCGCUGACA [Mat - Exclusion 3 - Lego mod - D92] | 69.9 | 254
15 | AUAAAACAUGAGGAUCACCCAUGUGAGGAUAUAGGAAACAAACAAACAAACAAACAAACUAGAAGGCACAAUAA [Amethyst 10] | 13 | 16.7
16 | AUAAAACAUGAGGAUCACCCAUGUGAGGAUAUGCGAAAAAAAAAAAGAAAAAAAAAAAGCAGAAGGCACAAUAA [Amethyst 43] | 32.8 | 34.9

Row | Sequence | apparent KD of MS2 coat protein (MS2 coat protein [1]) [nM] | apparent KD of MS2 coat protein (MS2 coat protein [2]) [nM]
17 | AUAAACGGAGGAUAUACAUGAGGAUCACCCAUGUAAAAAAAAAAAAGUUCCUCAAAAAGUAGAAGGUCGAAUAA [JR_Exc003_Sub012] | 15.5 | 13
18 | AUAAAGACAGGAUAUACAUGAGGAUCACCCAUGUAAAAAAAAAAAAGUUCCUCAAAAAGUAGAAGGGUCAAUAA [JR_Exc003_Sub014] | 28.4 | 119
19 | AUAAAGUGAGGAUAUACAUGAGGAUCACCCAUGUAAGAAAUAAAAUAAAUAAAGGGAAGUAGAAGGCACAAAUA [Denovo 1] | 35.8 | 41.3
20 | AUAAAUCGAGGAUAUACAUGAGGAUCACCCAUGUAAAUAAAUAAAUAAAACUCCACAAGUAGAAGGCGAAAUAA [JR_Exc003_Sub020] | 23.8 | 20.8
21 | AUAAGAGCAGGAUAUACGUAUAUGAUGCCAGGACCGCGUCCACAUGAGGAUCACCCAUGUAGAAGGGCUUGAAA [Disoleve] | 35.7 | 19.2
22 | AUAAUGAGAGGAUAUACAUGAGGAUCACCCAUGUAAUUAAAAAGGAGAGAAACAAUACGUAGAAGGCUCAUUUA [JR_Exc003+Sub601] | 21.6 | 50.6
23 | AUAGUACAUGAGGAUCACCCAUGUCAGGAUAUCGGAUAUGACAUGAAAAACAUGUUAACGAGAAGGGACUAUAA [EX1 Malc#19] | 26.2 | 36.6
24 | AUCUACCUAGGAUAUACAUGAGGAUCACCCAUGUACAGUUUCAACUAGGGAUACUCACGUAGAAGGAGGUAGAU [JR_Exc003_Sub1210] | 34.8 | 21.2
25 | AUUAAGUGAGGAUAUGAGUGAACAACAAAACAAAUAACGACUCAGAAGGCACAUGAGGAUCACCCAUGUAUAAA [May 69] | 31.7 | 28.7
26 | CAAAGGUGAGGAUAUACAGGAAUAUGACGAAAGUCAUAAAAACAUGAGGAUCACCCAUGUAGAAGGCACCACAA [E2 64% 3] | 37.4 | 57.3
27 | CACGUACAUGAGGAUCACCCAUGUUAGGAUAUGCCGAAAAAAAAAAAAAAAAAAAUCAGCAGAAGGAACGAAAC [Bilbo Confounded 19 - Jieux - Exclusion 1] | 40.2 | 36
28 | CCAAACGGAGGAUAUACAAAUUAAGGAAAAAAACGCGAAAAACAUGAGGAUCACCCAUGUAGAAGGCCGAAAAA [Ex 2 #2] | 20.3 | 18.5
29 | CCAAAGUGAGGAUAUACGCGAACAAAAAAAAAAAAGAAAGCGUAGAAGGCACAUGAGGAUCACCCAUGUCCAGG [Alfred 64% 1] | 41 | 99.3
30 | CCCAUGUCAGGAUAUCAGUAGUAAAAAAAAAAAAUUACUACUGAGAAGGGACAUGAGGAUCACCCAUGUCAAAA [EX4 315: Super Stable 15] | 80.2 | 21
31 | CCUAAACAUGAGGAUCACCCAUGUGAGGAUAUGAUGCGAAUAAAGAAAGAAGAAAGCAUCAGAAGGCACAUAGG | 41.1 | 283
